Results on two molecules are retold here after article PMC9543038 (Chembiochem, 2022).

As a reminder, the pEC50 is −log10 of the EC50, conventionally taken in molar units. High values mean a small EC50, low ones a large EC50. The term stoichiometry N denotes the number of molecules, sites or subunits per partner or assembly.

Where no end group is shown, it is not given here. [ ]: non-standard residue; d: D form. pT = C[C@@H](OP(=O)(O)O)[C@H](N)C(=O)O; FAM = fluorescein

Data set [1] has as its target T1, FAM‐ERα‐pTV peptide.
T1 peptide: {FAM}-KYYITGEAEGFPA[pT]V
In words: fluorescence polarisation. For orientation: Fluorescence polarisation rises when a labelled molecule tumbles more slowly, as on binding a larger partner.

The target in data set [2] is T1, FAM‐ERα‐pTV peptide. In words: fluorescence polarisation.
For data set [3], the target named is T1, FAM‐ERα‐pTV peptide. The data set is described as follows: fluorescence polarisation.
The data set “cross-linking” concerns the molecule itself. In words: cross-linking.

B1: recombinant N‐terminally GST‐tagged 14‐3‐3η (natural protein)
chain: MGDREQLLQRARLAEQAERYDDMASAMKAVTELNEPLSNEDRNLLSVAYKNVVGARRSSWRVISSIEQKTMADGNEKKLEKVKAYREKIEKELETVCNDVLSLLDKFLIKNCNDFQYESKVFYLKMKGDYYRYLAEVASGEKKNSVVEASEAAYKEAFEISKEQMQPTHPIRLGLALNFSVFYYEIQNAPEQACLLAKQAFDDAIAELDTLNEDSYKDSTLIMQLLRDNLTLWT
In turn, B1 returned a pEC50 in the data set with FAM‐ERα‐pTV peptide [1] of 5.13. Moreover, the “pEC50 with FC-A (100 μM)” value with FAM‐ERα‐pTV peptide [2] worked out at 6.16. For the same molecule, the “pEC50 with fragment 2 (1 mM)” value with FAM‐ERα‐pTV peptide [3] was 5.92.

B2: His‐14‐3‐3γ (natural protein, UniProt P61981 1-247, looked up)
chain: MVDREQLVQKARLAEQAERYDDMAAAMKNVTELNEPLSNEERNLLSVAYKNVVGARRSSWRVISSIEQKTSADGNEKKIEMVRAYREKIEKELEAVCQDVLSLLDNYLIKNCSETQYESKVFYLKMKGDYYRYLAEVATGEKRATVVESSEKAYSEAHEISKEHMQPTHPIRLGLALNYSVFYYEIQNAPEQACHLAKTAFDDAIAELDTLNEDSYKDSTLIMQLLRDNLTLWTSDQQDDDGGEGNN
Take B2: the “stoichiometry N” value in the data set “cross-linking” amounted to 2.
